Measured values as given in patent US20250019452A1 (Sanofi, published 2025).

Legend:
IL-1R3 = target: T1, IL-1R3 (human, UniProt Q9NPH3 21-570); experiment: cell-based or functional assay
T1 sequence (looked up): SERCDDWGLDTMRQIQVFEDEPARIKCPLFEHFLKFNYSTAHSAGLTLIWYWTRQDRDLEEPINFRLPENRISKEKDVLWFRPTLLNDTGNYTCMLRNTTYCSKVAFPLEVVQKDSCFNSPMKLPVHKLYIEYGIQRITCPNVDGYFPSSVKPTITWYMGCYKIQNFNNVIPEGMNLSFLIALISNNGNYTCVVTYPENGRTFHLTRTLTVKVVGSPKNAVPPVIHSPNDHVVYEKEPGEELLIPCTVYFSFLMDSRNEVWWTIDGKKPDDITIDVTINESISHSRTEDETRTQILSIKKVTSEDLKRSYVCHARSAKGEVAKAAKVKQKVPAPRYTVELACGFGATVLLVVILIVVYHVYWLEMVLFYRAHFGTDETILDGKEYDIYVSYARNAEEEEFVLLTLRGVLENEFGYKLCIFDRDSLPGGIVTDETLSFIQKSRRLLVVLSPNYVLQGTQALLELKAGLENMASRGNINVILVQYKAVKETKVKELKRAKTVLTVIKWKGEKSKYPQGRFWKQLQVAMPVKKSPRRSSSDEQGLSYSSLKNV

[1] = target: T2, FcgammaRIIIa (V158) expressed on Jurkat effector cells (UniProt P08637 17-254, limits assumed); experiment: cell based ADCC reporter gene assay, Jurkat FcgammaRIIIa (V158) effector cells with CHO IL1R3 target cells
T2 construct: whole, on cells; also called FcγRIII; Fc receptor of the effector cells
Method: The anti-IL-1R3 antibody in IgG1-LALA and IgG4-P-FALA format was tested for any ADCC activity using a reporter gene assay (iLite ADCC Bioassay #BM5001, SVAR Life Sciences, Malmö). This assay uses reporter-gene-carrying effector cells (Jurkat cells expression FcgammaRIIIa (V158)) that are used in conjunction with target cells that express the specific antigen at constant high levels (i.e. CHO ILIR3 target cells). Binding of the antibody to the target cell and binding of the effector cell to the Fc receptor of the antibody results in expression of the firefly luciferase reporter gene in the effector cell. The promoter of the firefly luciferase in the effector cells includes binding sites for NfkB, AP1, NFAT, CRE and STAT and thus includes the five principal transcription factors of the FcγRIII signal transduction pathway. The effector cells further comprise Renilla luciferase for normalization purposes.

B1: anti-IL-1R3-IgG4-P-FALA (antibody)
heavy: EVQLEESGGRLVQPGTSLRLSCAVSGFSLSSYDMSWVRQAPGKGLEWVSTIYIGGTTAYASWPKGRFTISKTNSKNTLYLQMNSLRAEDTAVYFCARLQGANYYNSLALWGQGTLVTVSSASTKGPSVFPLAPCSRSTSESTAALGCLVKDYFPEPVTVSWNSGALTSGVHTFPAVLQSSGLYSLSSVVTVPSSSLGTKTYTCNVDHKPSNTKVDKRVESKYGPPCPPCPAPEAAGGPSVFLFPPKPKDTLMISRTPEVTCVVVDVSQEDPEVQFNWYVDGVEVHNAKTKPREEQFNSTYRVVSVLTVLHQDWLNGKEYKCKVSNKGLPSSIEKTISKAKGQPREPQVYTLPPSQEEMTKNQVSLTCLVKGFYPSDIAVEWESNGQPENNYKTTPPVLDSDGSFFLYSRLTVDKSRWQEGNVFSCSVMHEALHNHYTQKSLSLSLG
light: DVQMTQSPSSLSASVGDRVTITCQASQSIYSFLSWYQQKPGQAPKLLIYAASDLESGVPSRFSGSGSGTDFTLTISSLQPEDFATYYCQSNYIIDYGAFGQGTKVVIKRTVAAPSVFIFPPSDEQLKSGTASVVCLLNNFYPREAKVQWKVDNALQSGNSQESVTEQDSKDSTYSLSSTLTLSKADYEKHKVYACEVTHQGLSSPVTKSFNRGEC
notes: Humanized antibody, human IgG4 backbone with S228P, F234A, L235A (EU) in the Fc region; also called anti-IL-1R3 IgG4-P-FALA Ab; aIL-1R3-IgG4; copies: 2 + 2
- IL8 release_hIL1b & hIL33 & IL36g, rel IC50 in nM (IL-1R3): 8.5 nM
- IL8 release_hIL1b & hIL36g, rel IC50 in nM (IL-1R3): 2.38 nM
- IL8 release_hIL1 beta, rel IC50 in nM (IL-1R3): 13.4 nM
- IL8 release_hIL33, rel IC50 in nM (IL-1R3): 2.34 nM
- IL8 release_hIL36g, rel IC50 in nM (IL-1R3): 0.45 nM
- binding result [1]: no binding
